# Values of other authors as cited in patent US5593962A, “Fibrillated calcitonin pharmaceutical compositions” (Ciba-Geigy Corporation, priority 1991, dated 1997).
# Columns and labels:
# [1] = physiological saline solutions or buffers
substance,measurement,setting,value
human calcitonin,stability in solution,[1],not stable
same,generation of neutralizing antibodies,after prolonged administration,not generating neutralizing antibodies
same,potency relative to salmon calcitonin,in vivo,less potent
